Assay results taken from the supplement of paper PMC9170038.

Tested on: MS2 coat protein
Experiment: apparent KD of MS2 coat protein; designed switch direction (-1 OFF switch, 1 ON switch): 1; higher = weaker reporter binding
In short: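 The apparent KD reported per design is the median over clusters of curve fits to normalised cluster fluorescence. The RNA switches were transcribed on Illumina chips by stalled E. coli RNA polymerase. SNAP-549-labelled MS2 coat protein was titrated from 0.7 or 1.5 nM, doubling up to 3 µM, in Tris-HCl pH 7.5 buffer containing KCl, MgCl2, BSA, DTT, tRNA and Tween-20, with no input, 200 uM small-molecule ligand, or an oligonucleotide input.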

[1] = input ligand: microRNA oligo, concentration not stated
[2] = Eterna round: R95, input ligand: microRNA oligo, concentration not stated
[3] = Eterna round: R95, input ligand: FMN 200 uM
[4] = Eterna round: R95, input ligand: none

| Sequence | apparent KD of MS2 coat protein (input ligand: FMN 200 uM) [nM] | apparent KD of MS2 coat protein [1] [nM] | apparent KD of MS2 coat protein (input ligand: none) [nM] | apparent KD of MS2 coat protein [2] [nM] | apparent KD of MS2 coat protein [3] [nM] | apparent KD of MS2 coat protein [4] [nM] |
| --- | --- | --- | --- | --- | --- | --- |
| AAAAGACAAAGAAAACAUGAGGAUCACCCAUGUGGCGUGACACAGGAUAUCCACGCUACAUUGCAGGAGAAGGGUGACAUGCAC [Ensora] (Eterna round: R96, puzzle: Same State NG 3) | 484 | 273 | 383 |  |  |  |
| GUGGUUCUCGUAGGAUAUGUAGGAUAUGCCUACAUGAGGAUCACCCAUGUUCGCAUGGCAGAAGGACAGAAGGACGAUCACUAA [pwkr ssNG2 2FMN + 1F5.15] (Eterna round: R96, puzzle: Same State NG 2) | 159 | 11.7 | 94.2 |  |  |  |
| GAGUUACAUGAGGAUCACCCAUGUUGUUGUGGAUAAGGAUAUAUGGUAGGAAGAGGAAUGAUAGAAGGUAUUAGGG [JR_SS1_Sub064] (puzzle: Same State 1) |  |  |  | 34.7 |  |  |
| AAUCGUUUGAUAGGAUAUCGUUAUACAUGAGGAUCACCCAUGUUUACCACGCUGGUUUUUCGUACCGAGAAGGAUUCUGAUGAU [JL JR sub007 mod 6] (Eterna round: R96, puzzle: Same State NG 2) | 30.5 | 20.2 | 27.5 |  |  |  |
| UUAAGCCACGGGCAGGAUAUGUAUUAAAAUACAUGAGGAUCACCCAUGUGCAGGUGUAACACCUGACAGAAGGGCCAAUCGAGGC [Soteed - 6] (puzzle: Same State 2) |  |  |  | 182 | 36.6 | 284 |
| AAACUAGGCGGUCCAACAUGAGGAUCACCCAUGUAAAAUUCAUAGGAUAUGCCUAUAGAAACAAGGCAGAAGGGUGAGACCGCA [Atsoorle] (Eterna round: R96, puzzle: Same State NG 3) | 68.6 | 93.7 | 134 |  |  |  |
| AGGCUCAGACGAGGAUAUAUGUCUCGAGCUUCGGCUCGAGACAUGAGGAUCACCCAUGUAAUAACAUAGAAGGCGUCUGAGCCA [SSNG2/1-A1] (Eterna round: R96, puzzle: Same State NG 2) | 15.7 | 24.9 | 37 |  |  |  |
| UUACUCAUGUAAGGAUAUGCAGCCGAAACGGCUGCAGAAGGUACUAUAAUACAUGAGGAUCACCCAUGUCAAAAUAAUUUUUAC [Mat - Same State NG 1 - JL mod - D71] (Eterna round: R96, puzzle: Same State NG 1) | 44.9 | 21.7 | 27.5 |  |  |  |
| GGUCCAGCCUGAGCUGGACAAAAGCAUGUACAUGAGGAUCACCCAUGUUCAUGUACAAGCUUUUUGCUCGUCUUACG [salish99_208a_r3_086] (puzzle: Sensor for hsa-mir-208a) |  |  |  | 19.2 | 571 | 844 |
| AGAAAUCAACGCGCACAUGAGGAUCACCCAUGUGCUCAAGCACAGGAUAUCGGCACAAGACAGGCCGAGAAGGGUGGAGCACGA [Eternabot solution 3] (Eterna round: R96, puzzle: Same State NG 3) | 14.7 | 19.7 | 24.1 |  |  |  |
| GCCAACUCAUGAGGAUAUGGCACCUUAUUGGUGCCAGAAGGCAUGUCAAUUGACAUGAGGAUCACCCAUGUAUUAUAGUUGGCA [Fiskers NG1ss - 22] (Eterna round: R96, puzzle: Same State NG 1) | 62.5 | 267 | 489 |  |  |  |
| AUUAAACAUGAGGAUCACCCAUGUCAACAAUGUCGAGGAUAUGGGCAAAUAAAAUAAGAACCAGAAGGCGAAUAAU [salish99_ss1_r3_076] (puzzle: Same State 1) |  |  |  | 426 | 39.9 | 303 |
| GCCGUAAUAACAUGAGGAUCACCCAUGUGCGCGAGAGUGGAUGAGGAUAUCGAUGGGUUUCCCGUCGAGAAGGCGUGGGUCGGC [JL SSNG3 3.98] (Eterna round: R96, puzzle: Same State NG 3) | 28 | 24.5 | 38.5 |  |  |  |
